Experimental data published in PMC4066767, “Distinct nucleic acid interaction properties of HIV-1 nucleocapsid protein precursor NCp15 explain reduced viral infectivity”.

B1: 40-nt ssDNA (ssDNA)
DNA: ACTGGACCAAATTCTAATGTGTGTGTACGAAGCATAGCGG

Experiments:
NCp15 (p9 + p6) (HIV-1) = NCp15 (p9 + p6) (HIV-1) (UniProt P12493); assay: fluorescence anisotropy
[1] = biological target: NCp7 (mature nucleocapsid) (HIV-1) (UniProt P12493); assay: fluorescence anisotropy
NCp9 (p7 + SP2) (HIV-1) = NCp9 (p7 + SP2) (HIV-1) (UniProt P12493); assay: fluorescence anisotropy
NCp9 (p7 + SP2) = NCp9 (p7 + SP2) (HIV-1, UniProt P12493 378-448); assay: fluorescence anisotropy salt titration; Kd extrapolated to 1 M NaCl; Zeff 4.3 ± 0.7; settings: protein: recombinant; tags: none (Trx tag removed by TEV); label: 5' FAM; single strand
NCp15 (p9 + p6) = NCp15 (p9 + p6) (HIV-1, UniProt P12493 378-500); assay: fluorescence anisotropy salt titration; Kd extrapolated to 1 M NaCl; Zeff 3.8 ± 0.7; settings: protein: recombinant; tags: none (Trx tag removed by TEV); label: 5' FAM; single strand
[2] = biological target: NCp7 (mature nucleocapsid) (HIV-1, UniProt P12493 378-432); assay: fluorescence anisotropy salt titration; Kd extrapolated to 1 M NaCl; Zeff 3.0 ± 0.3; settings: protein: recombinant; tags: none (Trx tag removed by TEV); label: 5' FAM; single strand

Row | Molecule | Kd (NCp15 (p9 + p6) (HIV-1)) | Kd [1] | Kd (NCp9 (p7 + SP2) (HIV-1)) | Kd (NCp9 (p7 + SP2)) | Kd (NCp15 (p9 + p6)) | Kd [2]
1 | shortPBS RNA (105 nt) | 0.278 µM | 0.231 µM | 0.24 µM |  |  | 
2 | B1 |  |  |  | 92 µM | 78 µM | 23 µM
